Target: the molecule itself
Assay: cryo-EM structure

B1: Redβ177-His6 (C-terminally truncated Redβ annealase of bacteriophage λ, residues 1-177) (domain or fragment, bacteriophage lambda (phage λ), UniProt P03698 1-177, looked up)
chain: MSTALATLAGKLAERVGMDSVDPQELITTLRQTAFKGDASDAQFIALLIVANQYGLNPWTKEIYAFPDKQNGIVPVVGVDGWSRIINENQQFDGMDFEQDNESCTCRIYRKDRNHPICVTEWMDECRREPFKTREGREITGPWQSHPKRMLRHKAMIQCARLAFGFAGIYDKDEAER
- binding result: binds

Reference: doi:10.1101/2022.04.09.487726 (bioRxiv, 2022)
